Source: paper PMC9482650, “Quantitative fragmentomics allow affinity mapping of interactomes” (Nature Communications, 2022)
Where a chain is given by its changes, count along the chain named.

T1: APBA2_2, Q99767
T1 sequence (Q99767 654-744, limits assumed, looked up): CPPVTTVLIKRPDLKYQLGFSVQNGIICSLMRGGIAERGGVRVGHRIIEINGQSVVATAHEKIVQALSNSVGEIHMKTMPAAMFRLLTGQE

T2: APBA3_1, O96018
T2 sequence (O96018 389-490, limits assumed, looked up): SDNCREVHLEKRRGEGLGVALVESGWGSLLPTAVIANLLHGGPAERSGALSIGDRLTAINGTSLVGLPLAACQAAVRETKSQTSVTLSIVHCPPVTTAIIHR

T3: GRIP1_4, Q9Y3R0
T3 sequence (Q9Y3R0 467-571, limits assumed, looked up): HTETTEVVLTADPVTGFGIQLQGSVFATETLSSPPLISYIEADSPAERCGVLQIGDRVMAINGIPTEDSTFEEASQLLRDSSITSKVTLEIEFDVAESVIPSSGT

T4: HTRA3, P83110
T4 sequence (P83110 354-453, limits assumed, looked up): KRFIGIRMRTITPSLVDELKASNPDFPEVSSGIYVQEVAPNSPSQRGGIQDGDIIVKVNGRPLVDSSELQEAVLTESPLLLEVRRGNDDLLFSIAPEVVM

T5: LIN7B, Q9HAP6
T5 sequence (Q9HAP6 88-185, limits assumed, looked up): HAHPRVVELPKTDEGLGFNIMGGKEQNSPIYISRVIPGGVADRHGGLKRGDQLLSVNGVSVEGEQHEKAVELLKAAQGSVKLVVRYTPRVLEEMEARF

T6: LIN7C, Q9NUP9
T6 sequence (Q9NUP9 88-185, limits assumed, looked up): T5 sequence (Q9HAP6 88-185, limits assumed, looked up) with A2S, D13E, V35I, V40I, Q65H, S79K, R89K, A96S

T7: MPDZ_5, O75970
T7 sequence (O75970 695-796, limits assumed, looked up): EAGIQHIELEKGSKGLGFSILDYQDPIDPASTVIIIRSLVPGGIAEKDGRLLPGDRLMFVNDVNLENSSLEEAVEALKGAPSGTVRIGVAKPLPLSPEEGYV

T8: NHERF3_3, Q5T2W1
T8 sequence (Q5T2W1 238-333, limits assumed, looked up): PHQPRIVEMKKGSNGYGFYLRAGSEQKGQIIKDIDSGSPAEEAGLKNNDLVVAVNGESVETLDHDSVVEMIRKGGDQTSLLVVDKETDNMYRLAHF

T9: PDZD7_3, Q9H5P4
T9 sequence (Q9H5P4 857-944, limits assumed, looked up): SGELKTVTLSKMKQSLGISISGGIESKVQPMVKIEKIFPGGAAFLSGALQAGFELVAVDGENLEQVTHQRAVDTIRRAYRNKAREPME

B1: APBA1, Q02410 (peptide)
chain: LTAQEQPVYI
B2: PLEKHH2, Q8IVE3 (peptide)
chain: SRPTKGPTLL

target: AHNAK1, Q09666; test: holdup assay; parameters: key: below the threshold = too weak to quantify, mostly under pKd 3.1 to 4; conditions: plain residues with an end cap or a label only (N-terminal biotin on a linker: ado-ado)
Sequence (Q09666 4-100): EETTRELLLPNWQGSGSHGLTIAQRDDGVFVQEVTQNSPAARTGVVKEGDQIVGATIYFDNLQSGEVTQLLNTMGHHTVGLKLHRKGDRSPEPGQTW

Q: With B1 as the binder, how does the pKd read?
A: The pKd was “below the threshold”.

Q: With B2 as the binder, how does the pKd read?
A: The pKd was “below the threshold”.

target: T1, APBA2_2, Q99767; test: holdup assay; parameters: key: below the threshold = too weak to quantify, mostly under pKd 3.1 to 4; conditions: plain residues with an end cap or a label only (N-terminal biotin on a linker: ado-ado)

Q: With B1 as the binder, how does the pKd read?
A: Its pKd is “below the threshold”.

Q: B2 was tested. Which pKd did it give?
A: Its pKd is “below the threshold”.

target: T2, APBA3_1, O96018; test: holdup assay; parameters: key: below the threshold = too weak to quantify, mostly under pKd 3.1 to 4; conditions: plain residues with an end cap or a label only (N-terminal biotin on a linker: ado-ado)

Q: B1 was tested. Which pKd did it give?
A: The pKd was “below the threshold”.

Q: Which pKd does the source give for B2 here?
A: Its pKd is “below the threshold”.

target: ARHGEF12, Q9NZN5-2; test: holdup assay; parameters: key: below the threshold = too weak to quantify, mostly under pKd 3.1 to 4; conditions: plain residues with an end cap or a label only (N-terminal biotin on a linker: ado-ado)
Sequence (Q9NZN5 other isoform, or with tags, fused parts or gaps): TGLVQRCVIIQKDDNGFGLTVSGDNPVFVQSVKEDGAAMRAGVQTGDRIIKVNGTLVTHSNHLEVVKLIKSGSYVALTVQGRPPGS

Q: Which pKd does the source give for B1 here?
A: Its pKd is “below the threshold”.

Q: For B2, which pKd is on record?
A: The pKd was 4.9.

target: DLG1_1, Q12959; test: holdup assay; parameters: key: below the threshold = too weak to quantify, mostly under pKd 3.1 to 4; conditions: plain residues with an end cap or a label only (N-terminal biotin on a linker: ado-ado)

Q: For B1, which pKd is on record?
A: The pKd was “below the threshold”.

Q: For B2, which pKd is on record?
A: Its pKd is 3.72.

target: DLG2_2, Q15700; test: holdup assay; parameters: key: below the threshold = too weak to quantify, mostly under pKd 3.1 to 4; conditions: plain residues with an end cap or a label only (N-terminal biotin on a linker: ado-ado)
Sequence (Q15700 189-283): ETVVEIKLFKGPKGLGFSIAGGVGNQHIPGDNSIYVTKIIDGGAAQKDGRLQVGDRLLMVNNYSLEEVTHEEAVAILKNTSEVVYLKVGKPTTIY

Q: B1 was tested. Which pKd did it give?
A: The pKd was “below the threshold”.

Q: Which pKd does the source give for B2 here?
A: Its pKd is “below the threshold”.

target: DLG4_2, P78352; test: holdup assay; parameters: key: below the threshold = too weak to quantify, mostly under pKd 3.1 to 4; conditions: plain residues with an end cap or a label only (N-terminal biotin on a linker: ado-ado)
Sequence (P78352 155-259): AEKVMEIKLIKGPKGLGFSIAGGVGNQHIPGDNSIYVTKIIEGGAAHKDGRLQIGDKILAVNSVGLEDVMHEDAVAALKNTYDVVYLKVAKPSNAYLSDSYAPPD

Q: For B1, which pKd is on record?
A: The pKd was “below the threshold”.

Q: How did the pKd turn out when B2 was run?
A: Its pKd is 3.7.

target: DLG4_3, P78352; test: holdup assay; parameters: key: below the threshold = too weak to quantify, mostly under pKd 3.1 to 4; conditions: plain residues with an end cap or a label only (N-terminal biotin on a linker: ado-ado)
Sequence (P78352 306-403): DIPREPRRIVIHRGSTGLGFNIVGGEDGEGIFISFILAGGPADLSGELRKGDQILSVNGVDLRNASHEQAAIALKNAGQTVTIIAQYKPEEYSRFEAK

Q: How did the pKd turn out when B1 was run?
A: Its pKd is “below the threshold”.

Q: With B2 as the binder, how does the pKd read?
A: The pKd was “below the threshold”.

target: FRMPD3, Q5JV73; test: holdup assay; parameters: key: below the threshold = too weak to quantify, mostly under pKd 3.1 to 4; conditions: plain residues with an end cap or a label only (N-terminal biotin on a linker: ado-ado)
Sequence (Q5JV73 12-100): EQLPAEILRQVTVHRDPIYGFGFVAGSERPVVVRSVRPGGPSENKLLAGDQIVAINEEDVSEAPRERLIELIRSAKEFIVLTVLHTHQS

Q: For B1, which pKd is on record?
A: Its pKd is “below the threshold”.

Q: With B2 as the binder, how does the pKd read?
A: Its pKd is “below the threshold”.

target: T3, GRIP1_4, Q9Y3R0; test: holdup assay; parameters: key: below the threshold = too weak to quantify, mostly under pKd 3.1 to 4; conditions: plain residues with an end cap or a label only (N-terminal biotin on a linker: ado-ado)

Q: For B1, which pKd is on record?
A: Its pKd is “below the threshold”.

Q: B2 was tested. Which pKd did it give?
A: Its pKd is “below the threshold”.

target: GRIP2_7, Q9C0E4; test: holdup assay; parameters: key: below the threshold = too weak to quantify, mostly under pKd 3.1 to 4; conditions: plain residues with an end cap or a label only (N-terminal biotin on a linker: ado-ado)
Sequence (Q9C0E4 934-1023): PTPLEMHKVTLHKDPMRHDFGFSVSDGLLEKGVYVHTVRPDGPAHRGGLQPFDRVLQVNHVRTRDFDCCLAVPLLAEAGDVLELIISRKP

Q: Which pKd does the source give for B1 here?
A: Its pKd is 3.78.

Q: How did the pKd turn out when B2 was run?
A: Its pKd is “below the threshold”.

target: HTRA1, Q92743; test: holdup assay; parameters: key: below the threshold = too weak to quantify, mostly under pKd 3.1 to 4; conditions: plain residues with an end cap or a label only (N-terminal biotin on a linker: ado-ado)
Sequence (Q92743 360-477): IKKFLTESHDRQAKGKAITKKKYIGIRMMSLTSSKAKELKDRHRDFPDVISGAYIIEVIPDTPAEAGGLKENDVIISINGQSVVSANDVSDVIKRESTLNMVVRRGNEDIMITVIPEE

Q: How did the pKd turn out when B1 was run?
A: The pKd was 5.07.

Q: Which pKd does the source give for B2 here?
A: The pKd was 4.16.

target: T4, HTRA3, P83110; test: holdup assay; parameters: key: below the threshold = too weak to quantify, mostly under pKd 3.1 to 4; conditions: plain residues with an end cap or a label only (N-terminal biotin on a linker: ado-ado)

Q: How did the pKd turn out when B1 was run?
A: The pKd was 4.41.

Q: B2 was tested. Which pKd did it give?
A: Its pKd is “below the threshold”.

target: IL16_1, Q14005; test: holdup assay; parameters: key: below the threshold = too weak to quantify, mostly under pKd 3.1 to 4; conditions: plain residues with an end cap or a label only (N-terminal biotin on a linker: ado-ado)
Sequence (Q14005 210-306): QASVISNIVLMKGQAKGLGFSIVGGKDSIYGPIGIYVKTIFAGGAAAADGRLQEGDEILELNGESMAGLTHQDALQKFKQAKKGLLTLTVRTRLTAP

Q: Which pKd does the source give for B1 here?
A: The pKd was “below the threshold”.

Q: How did the pKd turn out when B2 was run?
A: Its pKd is “below the threshold”.

target: IL16_4, Q14005; test: holdup assay; parameters: key: below the threshold = too weak to quantify, mostly under pKd 3.1 to 4; conditions: plain residues with an end cap or a label only (N-terminal biotin on a linker: ado-ado)
Sequence (Q14005 1229-1329): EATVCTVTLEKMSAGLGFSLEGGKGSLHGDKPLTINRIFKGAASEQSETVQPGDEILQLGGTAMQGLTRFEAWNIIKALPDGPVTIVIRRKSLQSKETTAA

Q: B1 was tested. Which pKd did it give?
A: Its pKd is 3.57.

Q: How did the pKd turn out when B2 was run?
A: The pKd was “below the threshold”.

target: Inadl_10, Q8NI35; test: holdup assay; parameters: key: below the threshold = too weak to quantify, mostly under pKd 3.1 to 4; conditions: plain residues with an end cap or a label only (N-terminal biotin on a linker: ado-ado)
Sequence (Q8NI35 1673-1763): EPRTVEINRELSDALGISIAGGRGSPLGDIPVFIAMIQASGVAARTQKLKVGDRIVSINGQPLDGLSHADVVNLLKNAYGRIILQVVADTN

Q: With B1 as the binder, how does the pKd read?
A: Its pKd is “below the threshold”.

Q: For B2, which pKd is on record?
A: Its pKd is “below the threshold”.

target: Inadl_5, Q8NI35; test: holdup assay; parameters: key: below the threshold = too weak to quantify, mostly under pKd 3.1 to 4; conditions: plain residues with an end cap or a label only (N-terminal biotin on a linker: ado-ado)
Sequence (Q8NI35 673-780): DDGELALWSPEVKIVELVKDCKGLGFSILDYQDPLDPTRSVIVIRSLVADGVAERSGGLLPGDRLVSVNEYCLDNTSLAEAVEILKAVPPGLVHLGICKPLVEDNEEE

Q: Which pKd does the source give for B1 here?
A: Its pKd is 3.86.

Q: With B2 as the binder, how does the pKd read?
A: Its pKd is “below the threshold”.

target: LAP2, Q96RT1; test: holdup assay; parameters: key: below the threshold = too weak to quantify, mostly under pKd 3.1 to 4; conditions: plain residues with an end cap or a label only (N-terminal biotin on a linker: ado-ado)
Sequence (Q96RT1 other isoform, or with tags, fused parts or gaps): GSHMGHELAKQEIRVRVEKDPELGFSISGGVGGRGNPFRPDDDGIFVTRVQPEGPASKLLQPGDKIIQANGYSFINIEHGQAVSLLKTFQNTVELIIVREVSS

Q: With B1 as the binder, how does the pKd read?
A: The pKd was “below the threshold”.

Q: For B2, which pKd is on record?
A: The pKd was “below the threshold”.

target: LDB3, O75112; test: holdup assay; parameters: key: below the threshold = too weak to quantify, mostly under pKd 3.1 to 4; conditions: plain residues with an end cap or a label only (N-terminal biotin on a linker: ado-ado)
Sequence (O75112 1-94): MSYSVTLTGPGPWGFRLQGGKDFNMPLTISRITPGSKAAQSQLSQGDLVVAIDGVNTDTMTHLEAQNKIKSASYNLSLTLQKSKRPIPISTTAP

Q: B1 was tested. Which pKd did it give?
A: Its pKd is “below the threshold”.

Q: Which pKd does the source give for B2 here?
A: Its pKd is “below the threshold”.

target: T5, LIN7B, Q9HAP6; test: holdup assay; parameters: key: below the threshold = too weak to quantify, mostly under pKd 3.1 to 4; conditions: plain residues with an end cap or a label only (N-terminal biotin on a linker: ado-ado)

Q: With B1 as the binder, how does the pKd read?
A: The pKd was 3.66.

Q: B2 was tested. Which pKd did it give?
A: Its pKd is “below the threshold”.

target: T6, LIN7C, Q9NUP9; test: holdup assay; parameters: key: below the threshold = too weak to quantify, mostly under pKd 3.1 to 4; conditions: plain residues with an end cap or a label only (N-terminal biotin on a linker: ado-ado)

Q: B1 was tested. Which pKd did it give?
A: The pKd was “below the threshold”.

Q: With B2 as the binder, how does the pKd read?
A: The pKd was “below the threshold”.

target: LNX1_3, Q8TBB1; test: holdup assay; parameters: key: below the threshold = too weak to quantify, mostly under pKd 3.1 to 4; conditions: plain residues with an end cap or a label only (N-terminal biotin on a linker: ado-ado)
Sequence (Q8TBB1 500-596): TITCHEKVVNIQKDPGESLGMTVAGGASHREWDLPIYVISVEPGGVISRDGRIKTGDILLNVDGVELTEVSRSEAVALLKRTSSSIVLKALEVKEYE

Q: Which pKd does the source give for B1 here?
A: Its pKd is “below the threshold”.

Q: Which pKd does the source give for B2 here?
A: The pKd was “below the threshold”.

target: MAGI2_3, Q86UL8; test: holdup assay; parameters: key: below the threshold = too weak to quantify, mostly under pKd 3.1 to 4; conditions: plain residues with an end cap or a label only (N-terminal biotin on a linker: ado-ado)
Sequence (Q86UL8 600-682): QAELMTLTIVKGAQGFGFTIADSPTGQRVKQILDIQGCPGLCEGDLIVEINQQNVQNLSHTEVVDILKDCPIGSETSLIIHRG

Q: B1 was tested. Which pKd did it give?
A: Its pKd is “below the threshold”.

Q: For B2, which pKd is on record?
A: The pKd was “below the threshold”.

target: MAGI2_4, Q86UL8; test: holdup assay; parameters: key: below the threshold = too weak to quantify, mostly under pKd 3.1 to 4; conditions: plain residues with an end cap or a label only (N-terminal biotin on a linker: ado-ado)
Sequence (Q86UL8 772-865): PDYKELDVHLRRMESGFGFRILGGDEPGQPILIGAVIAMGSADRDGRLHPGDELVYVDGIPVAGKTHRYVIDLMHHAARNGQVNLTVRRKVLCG

Q: Which pKd does the source give for B1 here?
A: The pKd was “below the threshold”.

Q: Which pKd does the source give for B2 here?
A: Its pKd is “below the threshold”.

target: T7, MPDZ_5, O75970; test: holdup assay; parameters: key: below the threshold = too weak to quantify, mostly under pKd 3.1 to 4; conditions: plain residues with an end cap or a label only (N-terminal biotin on a linker: ado-ado)

Q: B1 was tested. Which pKd did it give?
A: Its pKd is 3.52.

Q: For B2, which pKd is on record?
A: The pKd was “below the threshold”.

target: T8, NHERF3_3, Q5T2W1; test: holdup assay; parameters: key: below the threshold = too weak to quantify, mostly under pKd 3.1 to 4; conditions: plain residues with an end cap or a label only (N-terminal biotin on a linker: ado-ado)

Q: How did the pKd turn out when B1 was run?
A: The pKd was “below the threshold”.

Q: B2 was tested. Which pKd did it give?
A: The pKd was “below the threshold”.

target: PDLIM1, O00151; test: holdup assay; parameters: key: below the threshold = too weak to quantify, mostly under pKd 3.1 to 4; conditions: plain residues with an end cap or a label only (N-terminal biotin on a linker: ado-ado)
Sequence (O00151 1-87): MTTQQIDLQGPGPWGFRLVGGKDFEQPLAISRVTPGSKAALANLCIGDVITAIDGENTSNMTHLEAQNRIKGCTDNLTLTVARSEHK

Q: For B1, which pKd is on record?
A: The pKd was “below the threshold”.

Q: B2 was tested. Which pKd did it give?
A: Its pKd is “below the threshold”.

target: T9, PDZD7_3, Q9H5P4; test: holdup assay; parameters: key: below the threshold = too weak to quantify, mostly under pKd 3.1 to 4; conditions: plain residues with an end cap or a label only (N-terminal biotin on a linker: ado-ado)

Q: For B1, which pKd is on record?
A: Its pKd is “below the threshold”.

Q: B2 was tested. Which pKd did it give?
A: Its pKd is 4.78.

target: PDZRN4_1, Q6ZMN7; test: holdup assay; parameters: key: below the threshold = too weak to quantify, mostly under pKd 3.1 to 4; conditions: plain residues with an end cap or a label only (N-terminal biotin on a linker: ado-ado)
Sequence (Q6ZMN7 213-318): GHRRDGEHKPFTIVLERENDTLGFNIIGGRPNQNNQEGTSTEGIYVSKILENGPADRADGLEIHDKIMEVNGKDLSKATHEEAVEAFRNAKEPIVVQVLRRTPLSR

Q: How did the pKd turn out when B1 was run?
A: Its pKd is “below the threshold”.

Q: Which pKd does the source give for B2 here?
A: The pKd was “below the threshold”.
